# Assay: soluble on expression in E. coli; label from the status in PepcDB or PDB records
row,Sequence,soluble on expression in E. coli
1,MGSDKIHHHHHHMIQNTFNIAGGVARNPLVRLAAPITATISAGEHIAIVGPNGGGKSLFVDTLIGKYPLREGTLQYDFSPAATQTVYDNVKYIAFRDTYGAADANYYYQQRWNAHDQDEAPDVREMLGEIKDEQLKQELFELFRIEPMLDKKIILLSSGELRKFQLVKTLLTAPRVLIMDNPFIGLDAPTRELLFSLLDRLTKMSSVQIILVLSMLDDIPSFITHVIPVDKMTVYPKMEREAYLEAFRSRDAAVSFDELQQRIVNLPYDGNNYDSDEVVKLNKVSIRYDDRTILKDLDWTVRRGEKWALSGENGAGKSTLLSLVCADNPQSYACDISLFGRKRGTGESIWEIKKHIGYVSPEMHRAYLKNLPAIEIVASGLHDSIGLYKRPQPEQMAICEWWMDIFGIAELKDNPFLQLSSGEQRLALLARAFVKDPELLILDEPLHGLDTYNRRRVKKIIEAFCHRKDKTMIMVTHYESELPGTITDRIFLKRNR,not soluble
2,MGSDKIHHHHHHMIQPRIRQNPFETYEEVAEGFEDLLAPLELFFDREYQGHLDLGTHGTVYSKGTRDAEAFLRPLWGLGPYVTQNESEYLNDFLTGIIEGTDPESSSYWGKTKDYDQLIVEMAALSTFLLLNKEKTWDQLTKEQQNNLHSWLIQANENIIPPNNWHFFRVLLNLAMKHCEMPYSKEQIAVDLAVIDRFYVGNGWYYDGVETQVDYYVSFAIHYYSLLYCRFAPEDTARVAIMKERATLFAQEFKYWFTQPGEAIPFGRSLTYRFAQVSFFSALVFADVEALPWGEIKGLISRHLHQWMNKDIFTTDGLLSVGYDYQNMVFAEGYNGPGSPYWAFKTFILLAVPKDHPYWQAETQPISFPEKHLPSPESRNYYQVNDAGTHGLMFPAGQFINYQAHAHDKYSKFVYSSHFGFSTIKSDYWYYEGAYDNCLALAEDDHYFRTKGLDDQYEILDDRIIHQWHPWSDVAIKTTIVPLEGQHLRIHEIETQRALVAYEGGFSIPLFDEKVTCVSDQMAEVKNAKGVSKVENINGFSEAAIIRTEPNTNLLYPLTELPYLKANLSKGKHLLISLVTGVLPNEQIEPVKVRLKENQLLVEEKVVILGN,not soluble
3,MGSDKIHHHHHHMIRIENISKQNSHRLLFIEASAALNKGEKIGLVGPNGAGKTTLFRMITGEELPDEGQVATEKGVTIGYFNQDVGEMSGRSAVAEVMDGAGPVSTVAAELRELEGAMSDPDRMDEMDAIIERYGEVQARYEELDGYALEGRAREVLDGLSFSQEMMDGDVGKLSGGWKMRVALARILLMRPDVMLLDEPSNHLDLESLIWLESFLKNYDGALLMTSHDREFMNRIVTKIIEIDGGSLTSYSGDYGFYEGQRAQNEKQQQAQFERQQAMLAKEIKFIERFKARASHAAQVQSRVKKLDKIDRVEPPRRRQTVAFDFLPAPRSGDDVINIKNVHKAYGSRTIYQGLDFMVRRRERWCIMGINGAGKSTLLKLVAGTTEPDQGTVSIGASVKLGYFAQHAMDVLDGDSTVLQWLEESFPKAGQAPLRALAGCFGFSGDDVEKRCRVLSGGEKARLVMAAMLFDPPNLLVLDEPTNHLDLDTKEMLIKALSAYEGTMLFVSHDRHFLAALSNRVLELTPDGIHQYGGGYTEYVERTGQEAPGLHAA,not soluble
4,MGSDKIHHHHHHMIRIKTPSEIEKMKKAGKAVAVALREVRKVIVPGKTAWDVETLVLEIFKKLRVKPAFKGYGGYKYATCVSVNEEVVHGLPLKEKVFKEGDIVSVDVGAVYQGLYGDAAVTYIVGETDERGKELVRVTREVLEKAIKMIKPGIRLGDVSHCIQETVESVGFNVIRDYVGHGVGRELHEDPQIPNYGTPGTGVVLRKGMTLAIEPMVSEGDWRVVVKEDGWTAVTVDGSRCAHFEHTILITENGAEILTKEG,soluble
5,MGSDKIHHHHHHMISDLESLGIDFKDEGENYVPKKDYSGNLVAKYVFDSNGISTDNITLKDLSGHGYDGTMSGVSIKDDSELGKCAYFNGSASVNFNNQIIPKGNKTIIITFKKDSGTQSNGQYEFLIEQGSGQGESITSWSIRFDSYKTACLNNLYFCNDDSKINMLNSHPAVFNVCDGKKHTAIFNYYDNKTNNTYCDSLKAHVCSFDFNGGEYRTADNSIIGQKYVGYIKSIEIYDDVVEFNSISTGTSLNKNIDQLIIGQTDNLVATIMPEDVTDKSVIWSSSDPSIVAVDENGKITALKVGEVSITVTTNDGSNLSQTCMVAVIDTTIPDKACLNISMTNGQVKQYYVGMDLVNKFISWYKLRSAGSEEPFYEFDITQLSEPGILRHDYVVFNKISSFTVDDYVK,not soluble
6,MGSDKIHHHHHHMISRTMQQQVNSSSIIRAMFEEGKRLSALYGADNVYDFSLGNPNVEPPAEVKQAIMDILNEENSTTVHGYMNNSGFEDVRGAIAASLNQRFATGFAADNILMTVGAAGGLNVIFKTLLNPEDEVLTFAPFFGEYRNYVQNYQGQLIVVSPNTKDFQPNLEELKEKISPRTKAVLINSPNNPTGVVYSAETIAALVDILRAKQEEYGTVIYLIGDEPYRELAYDQVEVPYLTKYYENTIVGYSYSKSLSLPGERIGYLVIPREAADYENLIAAANIANRILGFVNAPSLFQRVIAKCLDAQVNLDSYNRNRELLYNALVSYGYQCIKPEGAFYLFIKTPLENDLEFCTLAKSKNILIVPGTSFACPGYARIAYCVAYETIERALPGFEALINEVSWASA,not soluble
7,MGSDKIHHHHHHMISVGKGKIMITPDHNIIKPIAIVLPQFHPIRENNLWWGEGFTEWTNVVKGRPRFRGHYQPHLPKDLGYYDLRLPETRKAQAALATKYGIYGFCYYHYWFNGRRILESPVDAMLESGEPDFPFMLCWANENWTRNWDGSYNKVLLEQKYSKEDFVNHARHLIRYFKDDRYIKIDGRPVFAIYKDDIGEDIEKYLLLFRNELLKNSINVFLCRFERNIGTSRDLNRAFQVFDAGIEFQPLARQFSYLINYNNRLSRRIYKTLKKHFCFCKNIDDVYVYSHLVDNDLKYDFQQGWPIFPGVCPGWDNSARRRDTTAIIFDKSTPEIFKLWVREKIRITDWNLLPERFLFVNAWNEWAEGNHLEPCEKWGTQYLAALQAGINEM,not soluble
8,MGSDKIHHHHHHMITASIVTYHHHFKDIRKVIECILSSPVSILYIIDNSSNDRLRELAKISAKIKYIHSVNLGYGAGHNIAIRESIDIGATYHIVVNPDIYFEEGVIEKLIIYMNKYSEVGLVMPRVLYPNGELQYLCKLLPTPFDLLFRRFLPWRRYVEKKNEKYELRFTNYSREMEVPSLSGCFMFVRIAVLKKVGGFDERYFMYAEDLDLCRRIGKVSRTMYYPNVVVYHEYAKGSYKNRRLLRYHLSSVVKYFNKWGWVWDLDRKIINKRILDNLKNV,not soluble
9,MGSDKIHHHHHHMIVALFALLASGCGHSQRTLEFRGICVDDPQGENGLYNPGRGFRLETAVDVLHEKDTPTEELNELSAKYVADSVSLSQSYFYLTYLIGKELSEENFRTMQAYFDELQKQGKKAVLRFAYERDFMGRSPVGPTGEQILAHLDQLKPFLEKNKDLILVVQAGMIGAWGEWHSSVQGLENSEETKAAVLEKLLSVVPAERNVQVRLPEFKNLLKDKPELYKRLSFHDDFIVIRPDRWDADMHEGTPKFDQIVAESPYLVVDGELPWGFWSVGADPDSPSAGWIIDGMQAARRLFLQHYTSLSIIHNYKEQHPNNRFDENNPPEYSMVVWKKTMITEDSLLQHHMPVSDSYFRKKDGTKVKRNMFDYIRDHLGYRIELQSLQLPSKFVSGKENVLKLSLKNRGFATVFGEHPVYFVLIDDAGEVTEFPTDANPKNWQPFEPKDSAYTSLMHTVDVSLELPASVTAGTYKLGLWIPDGSDRLRYNPRYAIHCANGDTDWWISKDGKYGVNVLTAVEVE,not soluble
10,MGSDKIHHHHHHMIVEMTGIHKSFSGNPVLKDVSFTLEKGEIHALMGENGAGKSTLMKILTGIYERDSGTVKIKGREVHYKHPKEAEADGLAVIHQELNILPELTVAENLFVGKERTYGKTGWIKSKEMNRLAEEKLAELGLKVKGTERAGNLSVGKQQLIEIAKALMTNADIIIMDEPTAALTDREIDTLFATVRELQKKGVTFVYISHRMEEIFSLCQRITVLRDGEYVGTKVIAETSFDEIVKMMVGRALGNRFPEHTLTPGDVKLEIKHLTRAGEFENVSLSVRAGEILGISGLMGAGRSELVETIFGYRKADSGEVWIDGKQAAIKGPDQAIAQGIGFVSEDRKSKGLIVDFSIRDNISLTNLSRISTSSWISSEKERSLYEELAKKLHVKASGPSQQAKSLSGGNQQKIVIAKWLGIEPKILILDEPTRGVDVGAKKEIYTIMNELAKQGVAIIMVSSELPEVIGLSTRVAVMFEGKLMHILERDELSEETIMHYATGGDKHVRQ,not soluble
11,MGSDKIHHHHHHMIVMDAETLKELIRDDFEVINANETVSKLFPMLEKLDRDKANAILVEEDGKIVGVVREKDLIRGSVLKNPHETKVKSLLVRTGKIDLNELDPYKVARRFVEDSTPFVIVQIDDKRVGVIYINDFLSALKDEFKDVKVREVMNPEVITVRRFDSAAKALSVMRTHGIDRVVVVDENNKVIGILTGKDVVDRVISPRKRARMGDSSGEKEKTLSIMVESIMSSPVVSVSRNDSVAEVIDLMVENRISSVVVTRDGLPDGIVIKKDILEYYLKKESRKEFNVQISTADITLDEFDREAILEDVEKLMRKFSDFLGESFLFIYIKRHKEHFRNLPLIHVRLKLASEKGNFMVSGESWGVEYAVHVALKKLEREILKEKELLEDKRMIKRFYEEVLEY,not soluble
12,MGSDKIHHHHHHMKASLEQSSLPCRRFGRTGLSMPVLSLGGMRFQQSWTDLEAEVITSESQQLLKDILERAVACGFHHVETARHYGSSERQLGWALRDVLDPQRLLQSKVPPREDPKVFEAELALSFERLGCERLDLVAIHGLNLSEHLEQTLRPGGCMDVLRRWQGDGRIGHVGFSTHGPTDLIVQAIETDAFDYVNLHWYFIYQDNDPALDAAARHDLGVFIISPTDKGGHLHSPSSQLLELCAPLHPIVFNDLFCLQDPRVHTISVGAARPSDLDRHLEAVDLLQSAAELLPPVQQRLVDAAQLALGEAWWTSWQRGLPPWQESPGEINLPILLWLHNLVEAWGMEGYAKARYGLLGSGSHWFPGANAEALDADVSETALREVLVNSPWCDQIPGLLRRLRNRLGGHPQQRLTSV,not soluble
13,MGSDKIHHHHHHMKAYAFGFPKIGEKREFKKALEDFWKGKITEEQFEEEMNKLRMYMVENYRKNVDVIPSNELSYYDFVLDTAVMVGAVPERFGEYRGLSTYFDMARGGKALEMTKFFNTNYHYLVPEIETEEFYLLENKPLEDYLFFKSKGIETAPWVIGPFTFLYLSKRNGEWIRRPNQMEKLLESLVSVYKEVFEKLVENGCKEILVNEPAFVCDLEKAHWDLILNVYRELSEFPLTVFTYYDSVSDYEACVSLPVKRLHFDFVSNEENLKNLEKHGFPEDKKLVAGVINGRQPWKVDLRKVASLVEKLGASAISNSCPLFHLPVTLELENNLPGGLKEKLAFAKEKLEELKMLKDFLEGKTFDLPNVSFEDFAVDLQAVERVRNLPEDSFRREKEYTERDRIQRERLNLPLFPTTTIGSFPQTPEVRKMRSKYRKGEISKEEYEAFIKEQIKKAIELQEEIGLDVLVHGEFERTDMVEFFAEKLNGIATTQNGWVLSYGSRCYRPPIIYGTVTRPEPMTLKEITYAQSLTEKPVKGMLTGPVTIMSWSYYREDIPEREIAYQIALAINEEVKDLEEAGIKIVQIDEPAFREKAPIKKSKWPEYFEWAINAFNLAANARPETQIHAHMCYSDFNEIIEYIHQLEFDVISIEASRSKGEIISAFENFKGWIKQIGVGVWDIHSPAVPSINEMREIVERVLRVLPKELIWINPDCGLKTRNWDEVIPSLRNMVALAKEMREKFES,not soluble
14,MGSDKIHHHHHHMKDMTNLDNFEVGFDIPAKPGMDAAEIQTPCLVLDLDALERNVKKMGDYAKAHGMRHRVHGKMHKSVDVAKLQERLGGAVGVCCQKVSEAEVFVRGGIKDVLVSNQVRDPLKIDRLAQLPKLGSRIIVCVDDLANVADLSAAALRHGTELEVLIEIDCGAGRCGVGTTQDVVAIARAVDAAENLKFTGIQAYQGAMQHLDKYEDRKAKLDIAIEMVESAVQGLKAVGLDPELVSGGGTGSYYFEANSGVYNELQCGSYAFMDADYGRILDQNGQRIDKGEWENAMFILTQVMSHAKADKAIVDAGLKAQSVDSGLPFVHGRDDVEYIKCSDEHGVVADPNGVLKVGDKLRLVPGHCDPTANVHDWYVGVRGGKVECVWPVSARGKAY,not soluble
